Data from publication PMC4807281, “Glutathionylation of the Bacterial Hsp70 Chaperone DnaK Provides a Link between Oxidative Stress and the Heat Shock Response*” (The Journal of Biological Chemistry, 2016).
No end group written: not given here. *: point of attachment. FITC = O=C1OC2(c3ccc(O)cc3Oc3cc(O)ccc32)c2ccc(NC(=S)*)cc21

Key:
[1] = target: T1, DnaK, untreated control (E. coli, UniProt P0A6Y8 1-638); test: cell-based or functional assay
[2] = target: T2, DnaK, glutathionylated at Cys-15 (E. coli, UniProt P0A6Y8 1-638, S-glutathionylated cysteine at Cys-15); test: cell-based or functional assay
[3] = target: T1, DnaK, untreated control; test: fluorescence polarisation; steady state; 20 nM FITC-…, increasing concentrations of DnaK, 60 min incubation, Buffer B (50 mM Tris-HCl pH 7.5, 100 mM KCl, 5 mM MgCl2), room temperature; apo or ADP state; single site binding model; conditions: both partners purified
[4] = target: T3, DnaK, deglutathionylated (E. coli, UniProt P0A6Y8 1-638); test: as above; conditions: both partners purified
T3 construct: DnaK (bacterial Hsp70), E. coli, gene dnaK cloned from genomic DNA of E. coli C41 cells; primers from the start to the stop codon; also called deglutathionylated DnaK; not shown: His6, N-terminal, cleaved; Smt3, N-terminal, cleaved

[5] = target: T2, DnaK, glutathionylated at Cys-15; test: as above; conditions: both partners purified
[6] = target: T1, DnaK, untreated control; test: fluorescence polarisation; steady state; 20 nM FITC-…, increasing concentrations of DnaK, Buffer B, room temperature; ATP state; conditions: both partners purified
[7] = target: T1, DnaK, untreated control; test: pull-down; 2 μM His6-DnaJ, 5 μM His6-GrpE or 2 μM His6-Smt3-σ^32 with 20 μM DnaK, Buffer B, 1 mM ADP, 8 °C, 60 min; Ni-Sepharose HP; wash 300 mM KCl, 40 mM imidazole; elution 300 mM imidazole; SDS-PAGE, Coomassie; conditions: both partners purified
[8] = target: T3, DnaK, deglutathionylated; test: as above; conditions: both partners purified
[9] = target: T2, DnaK, glutathionylated at Cys-15; test: as above; conditions: both partners purified

T2 sequence (P0A6Y8 whole entry): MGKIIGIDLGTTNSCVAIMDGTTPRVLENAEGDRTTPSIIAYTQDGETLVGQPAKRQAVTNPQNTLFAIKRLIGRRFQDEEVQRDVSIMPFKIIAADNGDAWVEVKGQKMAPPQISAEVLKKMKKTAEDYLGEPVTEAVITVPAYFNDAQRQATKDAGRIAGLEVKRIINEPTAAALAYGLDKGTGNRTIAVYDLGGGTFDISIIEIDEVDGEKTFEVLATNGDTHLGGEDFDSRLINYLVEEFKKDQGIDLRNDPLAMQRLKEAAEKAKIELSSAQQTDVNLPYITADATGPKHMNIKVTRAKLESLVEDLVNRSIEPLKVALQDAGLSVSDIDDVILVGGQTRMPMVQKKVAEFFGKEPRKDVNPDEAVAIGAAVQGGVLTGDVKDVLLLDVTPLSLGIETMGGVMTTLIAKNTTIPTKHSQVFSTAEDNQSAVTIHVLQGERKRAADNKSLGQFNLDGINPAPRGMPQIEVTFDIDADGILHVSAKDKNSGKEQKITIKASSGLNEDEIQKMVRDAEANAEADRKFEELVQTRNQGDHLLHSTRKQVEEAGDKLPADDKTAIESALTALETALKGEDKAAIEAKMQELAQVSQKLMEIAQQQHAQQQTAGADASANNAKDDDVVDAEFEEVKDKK
T3 sequence (P0A6Y8 whole entry): as above
T1 sequence (P0A6Y8 whole entry): as above

B1: His6-DnaJ (natural protein, E. coli, UniProt P08622 1-376, looked up)
chain: MAKQDYYEILGVSKTAEEREIRKAYKRLAMKYHPDRNQGDKEAEAKFKEIKEAYEVLTDSQKRAAYDQYGHAAFEQGGMGGGGFGGGADFSDIFGDVFGDIFGGGRGRQRAARGADLRYNMELTLEEAVRGVTKEIRIPTLEECDVCHGSGAKPGTQPQTCPTCHGSGQVQMRQGFFAVQQTCPHCQGRGTLIKDPCNKCHGHGRVERSKTLSVKIPAGVDTGDRIRLAGEGEAGEHGAPAGDLYVQVQVKQHPIFEREGNNLYCEVPINFAMAALGGEIEVPTLDGRVKLKVPGETQTGKLFRMRGKGVKSVRGGAQGDLLCRVVVETPVGLNERQKQLLQELQESFGGPTGEHNSPRSKSFFDGVKKFFDDLTR
acceleration of ATP turnover of DnaK by DnaJ, malachite green ATPase assay, DnaJ to DnaK ratio 2:1 [1]: 6 fold | acceleration of ATP turnover of DnaK by DnaJ, malachite green ATPase assay, DnaJ to DnaK ratio 2:1 [2]: 2 fold

{FITC}-ALLLSAPRR (also called FAR) [FITC-ALLLSAPRR peptide]
Kd [3]: 200 to 500 nM | Kd [4]: 200 to 500 nM | Kd [5]: 4000 to 6000 nM | Kd [6]: ≥ 10000 nM

B2: His6-GrpE (natural protein, E. coli, UniProt P09372 1-197, looked up)
chain: MSSKEQKTPEGQAPEEIIMDQHEEIEAVEPEASAEQVDPRDEKVANLEAQLAEAQTRERDGILRVKAEMENLRRRTELDIEKAHKFALEKFINELLPVIDSLDRALEVADKANPDMSAMVEGIELTLKSMLDVVRKFGVEVIAETNVPLDPNVHQAIAMVESDDVAPGNVLGIMQKGYTLNGRTIRAAMVTVAKAKA
notes: GrpE (nucleotide exchange factor of DnaK), E. coli, gene grpE cloned from genomic DNA of E. coli C41 cells; primers from the start to the stop codon; Uncleavable His6 tag from the mini pRSETa plasmid; not shown: His6, N-terminal, kept
binding result [7]: binds | binding result [8]: binds | binding result [9]: binds

B3: His6-Smt3-σ^32 (natural protein, E. coli, UniProt P0AGB3 1-284, looked up)
chain: MTDKMQSLALAPVGNLDSYIRAANAWPMLSADEERALAEKLHYHGDLEAAKTLILSHLRFVVHIARNYAGYGLPQADLIQEGNIGLMKAVRRFNPEVGVRLVSFAVHWIKAEIHEYVLRNWRIVKVATTKAQRKLFFNLRKTKQRLGWFNQDEVEMVARELGVTSKDVREMESRMAAQDMTFDLSSDDDSDSQPMAPVLYLQDKSSNFADGIEDDNWEEQAANRLTDAMQGLDERSQDIIRARWLDEDNKSTLQELADRYGVSAERVRQLEKNAMKKLRAAIEA
notes: σ^32 subunit of RNA polymerase (heat shock sigma factor), E. coli, gene rpoH cloned from genomic DNA of E. coli C41 cells; primers from the start to the stop codon; The His6-Smt3 tag (pET28a-SMT3) was not cleaved from σ^32; order of the tags from the printed label; also called heat shock transcription factor σ^32; not shown: His6, N-terminal, kept; Smt3, N-terminal, kept
binding result [7]: binds | binding result [8]: binds | binding result [9]: binds
